Measurements reported in the RNAGym collection of RNA variant scans (doi:10.7554/elife.90254).

B1: LINE1-full (parent)
chain: UACGUAGGUGGUUUUCCCCUGAUAGUGCUAAGGGGGCCUGGAAGUUUGGACUGGGCAGAGCUCAACACAGCGUGGCAAAGUGGCUGUGGCUAGACUGCCUCUCUGGAUUCCUCGUCACUCAGCAGGGCAUCUCUGAGAGAAAUGCC

Variants of: B1
Test: self-cleavage, relative activity (ratio to wild type); higher = more cleavage; in vitro, sequencing; the parent is a self-cleaving ribozyme

Point of comparison: G89U A117G, self-cleavage 0. Against it:
- U91C A94U — higher, 0.2
- U91C A94G — higher, 0.15
- U85G A94G — higher, 0.36
- U91A U109C — higher, 0.65
- A92G G122A — higher, 0.13
- U87C — higher, 0.22
- U87G — higher, 0.21
- U87A — higher, 0.08
- G86A C118U — higher, 0.09
- G88U A138G — higher, 0.06
- U87A G127U — higher, 0.06
- U87A G127A — higher, 0.04
- U87C U100C — higher, 0.26
- U87C U100A — higher, 0.1
- U87C U112A — higher, 0.16
- U87C U112C — higher, 0.23
- U85C U87C — higher, 0.04
- U85C U87A — higher, 0.07
- G89C U130C — higher, 0.09
- U87G U104A — higher, 0.2
- U87G A138U — higher, 0.48
- U87G A138G — higher, 0.14
- U91C C101U — higher, 0.69
- U87G A94U — higher, 0.13
- U91G U143C — higher, 0.07
- U91C A124C — higher, 0.69
- U87C G139A — higher, 0.14
- A92G G114A — higher, 0.1
- G89C A138G — higher, 0.07
- G89C A136G — higher, 0.06
- U91C U104C — higher, 1.15
- U91C U104A — higher, 0.34
- U91C U102C — higher, 0.4
- U91C A141U — higher, 0.51
- U87A U119A — higher, 0.08
- U87A U119C — higher, 0.07
- U91C A92G — higher, 0.1
- U91C A92U — higher, 0.23
- U87A A121U — higher, 0.09
- U87A A121G — higher, 0.1
- G88C U132C — higher, 0.09
- G89C U119A — higher, 0.02
- U87C A138G — higher, 0.28
- U87A U112C — higher, 0.07
- G86A U119A — higher, 0.16
- U87C G106A — higher, 0.21
- U87C G106U — higher, 0.26
- A92G C110U — higher, 0.05
- U87A A140U — higher, 0.11
- G89A U102C — higher, 0.05
- U91G G114C — higher, 0.02
- C90U U143C — the same, 0
- U91C C145U — higher, 0.43
- U91C G97A — higher, 0.05
- C90U A142G — higher, 0.03
- U87A G114A — higher, 0.05
- U87G U108C — higher, 0.16
- G88A U130C — higher, 0.01
- U91C A140C — higher, 0.38
- U87G U115A — higher, 0.24
- G89A A92U — higher, 0.07
- C90A C99G — higher, 0.02
- U91A U102C — higher, 0.22
- U87C U96A — higher, 0.09
- U91C U132C — higher, 0.83
- U91C G135A — higher, 0.73
- U87A U134A — higher, 0.13
- U87C U132C — higher, 0.19
- U87A C99U — higher, 0.12
- U87C C90U — higher, 0.07
- U91A U134A — higher, 0.18
- U91A U134C — higher, 0.45
- G89U G93A — higher, 0.04
- U87C C120A — higher, 0.18
- G88U U104C — higher, 0.05
- G89A — higher, 0.04
- G89U — higher, 0.01
- G89C — higher, 0.04
- U85G U134C — higher, 0.16
- G89A U104A — higher, 0.01
- G89U A107G — higher, 0.04
- U87A A136G — higher, 0.08
- G88U U100C — higher, 0.04
- U91A G126A — higher, 0.43
- U91C C110G — higher, 0.58
- C90U A94U — higher, 0.04
- G88A G122A — higher, 0.07
- U91C C146U — higher, 0.53
- U87C G97A — higher, 0.12
- G88A C146U — higher, 0.07
- C90U U119C — higher, 0.03
- U91C U100C — higher, 0.48
- U87C A121U — higher, 0.2
- G86U — higher, 0.1
- G86C — higher, 0.06
- G86A — higher, 0.08
- U91C A142G — higher, 0.73
- U87C A141U — higher, 0.2
- G86A A94G — higher, 0.06
- U85G U143C — higher, 0.13
- G89A U91C — higher, 0.05
- U87A C110A — higher, 0.06
- U91C C120A — higher, 0.74
- G86A U108A — higher, 0.02
- U91C U108C — higher, 0.62
- A92C U130A — higher, 0.28
- U91G A121G — higher, 0.33
- G89U C123G — higher, 0.07
- A92C U104A — higher, 0.38
- A92G A140G — higher, 0.15
- U91C A138G — higher, 1.98
- U91C U109C — higher, 0.61
- U91A A92G — higher, 0.16
- U91A A92U — higher, 1.33
- U85C G144U — higher, 0.19
- U87C A117G — higher, 0.41
- U87C A117U — higher, 0.19
- U87C A117C — the same, 0
- A92G G126U — higher, 0.13
- U87C G144A — higher, 0.24
- U85C U143A — higher, 0.19
- U85C U143C — higher, 0.1
- U87C G88A — higher, 0.09
- U85C U132C — higher, 0.24
- U85C U132G — higher, 0.28
- G88A A140U — higher, 0.07
- G86A U102C — higher, 0.18
- U85G A138U — the same, 0
- G89A U109G — higher, 0.04
- G88A A121G — higher, 0.06
- U87C C103A — higher, 0.1
- G89A A117U — higher, 0.04
- G86A U115C — higher, 0.12
- A92C A138G — higher, 0.14
- U87C A129G — higher, 0.07
- U87C A129U — higher, 0.15
- A92G G137U — higher, 0.07
- U87A U91C — higher, 0.07
- U85C U104C — higher, 0.18
- U85C U104A — higher, 0.08
- U91C A117C — higher, 1.24
- U91C C118U — higher, 0.67
- A92G C133U — higher, 0.02
- U87A A124U — higher, 0.08
- G88A A138G — higher, 0.06
- C90G A129G — higher, 0.04
- U91A A136G — higher, 0.36
- U91A A136U — higher, 0.54
- U87G A124C — higher, 0.32
- U85C G122A — higher, 0.14
- U87A G97U — higher, 0.08
- U85G C128U — higher, 0.39
- U91C C99U — higher, 0.12
- G86A A138G — higher, 0.13
- A92G C103U — higher, 0.03
- U87C C145A — higher, 0.27
- G88A A136G — higher, 0.07
- U87C A136C — higher, 0.16
- U87C A136G — higher, 0.24
- G89U A142G — higher, 0.03
- U85C U102C — higher, 0.12
- U91C A136G — higher, 0.8
- U91A U96A — higher, 0.04
- U87A A117G — higher, 0.09
- G88C G105A — higher, 0.06
- G89C A124G — higher, 0.08
